Results taken from patent US20110086806A1 (published 2011).

T1: recombinant human IL-23R/Fc chimera (R&D Systems) (human, UniProt Q5VWK5 24-355)
T1 construct: Bought; also called rhIL23RFc
T1 sequence (looked up): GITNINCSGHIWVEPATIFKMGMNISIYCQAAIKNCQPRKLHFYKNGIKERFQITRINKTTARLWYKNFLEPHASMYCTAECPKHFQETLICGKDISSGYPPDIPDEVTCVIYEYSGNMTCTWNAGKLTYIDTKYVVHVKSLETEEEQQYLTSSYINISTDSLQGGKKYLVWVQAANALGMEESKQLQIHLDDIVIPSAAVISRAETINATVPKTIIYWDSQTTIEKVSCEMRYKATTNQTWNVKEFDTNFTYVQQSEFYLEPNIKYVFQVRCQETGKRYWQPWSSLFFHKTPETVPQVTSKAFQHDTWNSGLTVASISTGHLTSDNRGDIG


Molecular target: T1, recombinant human IL-23R/Fc chimera …
Test: competition ELISA vs IL-23
Experimental: Assays were performed generally as follows. Individual wells in Immulon HB2 plates were incubated overnight at 4° C. with 100 μL PBS containing 100 ng of an anti-human IgG Fc (R&D MAB 110 clone 97924). Plates were washed five times with PBS/0.05% Tween 20, and wells were incubated for 1.5 h at RT with 100 μL each of PBS containing 50 ng of recombinant human IL-23R/Fc. […] Competitor was included at a final concentration of 1 μg/mL. After incubation, plates were washed as described and wells were incubated for 40 min at RT with 100 μL each of PBS containing a 1:5000 dilution of streptavidin-HRP conjugate (Pierce catalog no. 21130). After washing, wells were incubated with 100 μL each of TMB (BioFX Lab catalog no. TMBH-1000-0) for up to 30 min at RT. Reactions were stopped with an equal volume of 0.2 M sulfuric acid.

Ratio IC50 to 056-53.H4E IC50 | Binder
4.1 | 105-08-1B7 ATRIMER complex (designed binder) EPPTQKPKKIVNAKKDVVNTKMFEELKSRLDTLAQEVALLKEQQALQTVCLKGTKVHMKCFLAFTQTKTFHEASEDCISRGGTLSTPQTGSENDALYEYLRQSVGNEAEIWLGLNGSPRTDTWVDMTGARIAYKNWETEITAQPDGGFGYFGENCAVLSGAANGKWFDKRCRDQLPYICQFGIV
13.2 | 105-08-1G12 ATRIMER complex (designed binder, Homotrimer (ATRIMER complex) of the one chain given.) EPPTQKPKKIVNAKKDVVNTKMFEELKSRLDTLAQEVALLKEQQALQTVCLKGTKVHMKCFLAFTQTKTFHEASEDCISRGGTLSTPQTGSENDALYEYLRQSVGNEAEIWLGLNGSLRTGTWVDMTGARIAYKNWETEITAQPDGGWGYFGENCAVLSGAANGKWFDKRCRDQLPYICQFGIV
3.4 | 105-08-2B3 ATRIMER complex (designed binder, not shown: small tags and cut ends) EPPTQKPKKIVNAKKDVVNTKMFEELKSRLDTLAQEVALLKEQQALQTVCLKGTKVHMKCFLAFTQTKTFHEASEDCISRGGTLSTPQTGSENDALYEYLRQSVGNEAEIWLGLNGSAITNTWVDMTGARIAYKNWETEITAQPDGGWGYFGENCAVLSGAANGKWFDKRCRDQLPYICQFGIV
3.3 | 105-08-1C4 ATRIMER complex (designed binder, not shown: small tags and cut ends) EPPTQKPKKIVNAKKDVVNTKMFEELKSRLDTLAQEVALLKEQQALQTVCLKGTKVHMKCFLAFTQTKTFHEASEDCISRGGTLSTPQTGSENDALYEYLRQSVGNEAEIWLGLNGSTLTDTWVDMTGARIAYKNWETEITAQPDGGWGYFGENCAVLSGAANGKWFDKRCRDQLPYICQFGIV
5.5 | 105-08-1D10 ATRIMER complex (designed binder) EPPTQKPKKIVNAKKDVVNTKMFEELKSRLDTLAQEVALLKEQQALQTVCLKGTKVHMKCFLAFTQTKTFHEASEDCISRGGTLSTPQTGSENDALYEYLRQSVGNEAEIWLGLNGSARTGTWVDMTGARIAYKNWETEITAQPDGGWGYFGENCAVLSGAANGKWFDKRCRDQLPYICQFGIV
4.7 | 105-08-1B10 ATRIMER complex (designed binder, not shown: C-terminal tag: His/Myc (pANA4) or HA-StrepII (pANA10)) EPPTQKPKKIVNAKKDVVNTKMFEELKSRLDTLAQEVALLKEQQALQTVCLKGTKVHMKCFLAFTQTKTFHEASEDCISRGGTLSTPQTGSENDALYEYLRQSVGNEAEIWLGLNGSRHTDTWVDMTGARIAYKNWETEITAQPDGGFGYFGENCAVLSGAANGKWFDKRCRDQLPYICQFGIV
4.3 | 105-08-1D2 ATRIMER complex (designed binder, not shown: C-terminal tag: His/Myc (pANA4) or HA-StrepII (pANA10)) EPPTQKPKKIVNAKKDVVNTKMFEELKSRLDTLAQEVALLKEQQALQTVCLKGTKVHMKCFLAFTQTKTFHEASEDCISRGGTLSTPQTGSENDALYEYLRQSVGNEAEIWLGLNGSPVTDTWVDMTGARIAYKNWETEITAQPDGGFGYFGENCAVLSGAANGKWFDKRCRDQLPYICQFGIV
2.8 | 105-08-1C11 ATRIMER complex (designed binder, ATRIMER complex: homotrimer of three copies of this chain, joined by the tetranectin coiled coil, not shown: C-terminal tag: Myc/His (pANA4) or HA-StrepII (pANA10)) EPPTQKPKKIVNAKKDVVNTKMFEELKSRLDTLAQEVALLKEQQALQTVCLKGTKVHMKCFLAFTQTKTFHEASEDCISRGGTLSTPQTGSENDALYEYLRQSVGNEAEIWLGLNGSSRTDTWVDMTGARIAYKNWETEITAQPDGGFGYFGENCAVLSGAANGKWFDKRCRDQLPYICQFGIV
4.6 | 105-08-1D12 ATRIMER complex (designed binder, not shown: C-terminal tag: His/Myc (pANA4) or HA-StrepII (pANA10)) EPPTQKPKKIVNAKKDVVNTKMFEELKSRLDTLAQEVALLKEQQALQTVCLKGTKVHMKCFLAFTQTKTFHEASEDCISRGGTLSTPQTGSENDALYEYLRQSVGNEAEIWLGLNGSVLTDTWVDMTGARIAYKNWETEITAQPDGGFGYFGENCAVLSGAANGKWFDKRCRDQLPYICQFGIV
4.1 | 105-08-1C2 ATRIMER complex (designed binder) EPPTQKPKKIVNAKKDVVNTKMFEELKSRLDTLAQEVALLKEQQALQTVCLKGTKVHMKCFLAFTQTKTFHEASEDCISRGGTLSTPQTGSENDALYEYLRQSVGNEAEIWLGLNGSRATDTWVDMTGARIAYKNWETEITAQPDGGFGYFGENCAVLSGAANGKWFDKRCRDQLPYICQFGIV
7.4 | 105-08-1C9 ATRIMER complex (designed binder) EPPTQKPKKIVNAKKDVVNTKMFEELKSRLDTLAQEVALLKEQQALQTVCLKGTKVHMKCFLAFTQTKTFHEASEDCISRGGTLSTPQTGSENDALYEYLRQSVGNEAEIWLGLNGSTLTDTWVDMTGARIAYKNWETEITAQPDGGFGYFGENCAVLSGAANGKWFDKRCRDQLPYICQFGIV
2.4 | 105-08-1G9 ATRIMER complex (designed binder) EPPTQKPKKIVNAKKDVVNTKMFEELKSRLDTLAQEVALLKEQQALQTVCLKGTKVHMKCFLAFTQTKTFHEASEDCISRGGTLSTPQTGSENDALYEYLRQSVGNEAEIWLGLNGSPKTDTWVDMTGARIAYKNWETEITAQPDGGFGYFGENCAVLSGAANGKWFDKRCRDQLPYICQFGIV
5 | 105-08-1C10 ATRIMER complex (designed binder) EPPTQKPKKIVNAKKDVVNTKMFEELKSRLDTLAQEVALLKEQQALQTVCLKGTKVHMKCFLAFTQTKTFHEASEDCISRGGTLSTPQTGSENDALYEYLRQSVGNEAEIWLGLNGSSVTNTWVDMTGARIAYKNWETEITAQPDGGWGYFGENCAVLSGAANGKWFDKRCRDQLPYICQFGIV
5.5 | 105-08-1G2 ATRIMER complex (designed binder) EPPTQKPKKIVNAKKDVVNTKMFEELKSRLDTLAQEVALLKEQQALQTVCLKGTKVHMKCFLAFTQTKTFHEASEDCISRGGTLSTPQTGSENDALYEYLRQSVGNEAEIWLGLNGSSKTNTWVDMTGARIAYKNWETEITAQPDGGWGYFGENCAVLSGAANGKWFDKRCRDQLPYICQFGIV
2 | 105-08-1C6 ATRIMER complex (designed binder) EPPTQKPKKIVNAKKDVVNTKMFEELKSRLDTLAQEVALLKEQQALQTVCLKGTKVHMKCFLAFTQTKTFHEASEDCISRGGTLSTPQTGSENDALYEYLRQSVGNEAEIWLGLNGSALTDTWVDMTGARIAYKNWETEITAQPDGGFGYFGENCAVLSGAANGKWFDKRCRDQLPYICQFGIV
5 | 105-08-2A1 ATRIMER complex (designed binder) EPPTQKPKKIVNAKKDVVNTKMFEELKSRLDTLAQEVALLKEQQALQTVCLKGTKVHMKCFLAFTQTKTFHEASEDCISRGGTLSTPQTGSENDALYEYLRQSVGNEAEIWLGLNGSMRTDTWVDMTGARIAYKNWETEITAQPDGGWGYFGENCAVLSGAANGKWFDKRCRDQLPYICQFGIV
3.6 | 105-08-1C3 ATRIMER complex (designed binder) EPPTQKPKKIVNAKKDVVNTKMFEELKSRLDTLAQEVALLKEQQALQTVCLKGTKVHMKCFLAFTQTKTFHEASEDCISRGGTLSTPQTGSENDALYEYLRQSVGNEAEIWLGLNGSQLTDTWVDMTGARIAYKNWETEITAQPDGGWGYFGENCAVLSGAANGKWFDKRCRDQLPYICQFGIV
3.6 | 105-08-1D1 ATRIMER complex (designed binder, not shown: small tags and cut ends) EPPTQKPKKIVNAKKDVVNTKMFEELKSRLDTLAQEVALLKEQQALQTVCLKGTKVHMKCFLAFTQTKTFHEASEDCISRGGTLSTPQTGSENDALYEYLRQSVGNEAEIWLGLNGSALTDTWVDMTGARIAYKNWETEITAQPDGGWGYFGENCAVLSGAANGKWFDKRCRDQLPYICQFGIV
